Data taken from the supplement of paper PMC12764529.
± gives the half width of the 95% confidence interval.

Assays:
[1] = folding stability dG unfold from trypsin proteolysis; higher = more stable
How it was run: (§1)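 Bayesian fitting of sequencing counts gave K50 for each design. Unfolding free energy followed by setting this against a sequence-predicted unfolded-state K50 and a shared folded-state K50, either per protease or with trypsin and chymotrypsin combined. The designs, under 80 residues and lacking cysteine, were digested in a PA-tagged cDNA display format at 11 threefold-diluted protease concentrations and without protease, and only those with AlphaFold2 dimer inter-PAE above 15 were kept.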

[2] = folding stability dG unfold from chymotrypsin proteolysis; higher = more stable
How it was run: as §1

[3] = folding stability dG unfold (combined trypsin and chymotrypsin); higher = more stable
How it was run: as §1

| Sequence | folding stability dG unfold [1] | folding stability dG unfold [2] | folding stability dG unfold [3] |
| --- | --- | --- | --- |
| SAGGSAGGSAGGPRTIYIPVKVEPDPNGKWKIDIEEIAKNLPDVKITSITPNYIKITFPASAGGSAGGSAGG [r11_771_TrROS] | 0.398 ± 0.18 kcal/mol | 1.38 ± 0.13 kcal/mol | 1.08 ± 0.16 kcal/mol |
| SAGGSAMKVDPSTKVVTVTDPKTGKEYRVNLPDVPPEKGVEVKVDNGKVTVKTEEGVRVIPYSELKSAGGSA [r15_864_JUSTAS] | 0.609 ± 0.044 kcal/mol | 0.538 ± 0.12 kcal/mol | 0.71 ± 0.097 kcal/mol |
| SSVPADAAPVTVTETVTVTLPVDTATGGVPEERVAAAREAAAARGFTEFTVTTDPAAGTVTVTVTRTSRVSA [r9_201_JUSTAS] | 0.77 ± 0.055 kcal/mol | 1.27 ± 0.035 kcal/mol | 1.11 ± 0.054 kcal/mol |
| SAGKIKVYYDPKLGRIIEIPLPNGKRIRIYLPKNKLIIVAEDPEGNKAIPIEIETKIGDIIKIIKEIAGSAG [r5_820_TrMRF] | 2.9 ± 0.075 kcal/mol | 3.57 ± 0.11 kcal/mol | 3.16 ± 0.18 kcal/mol |
| SAGGMRIYIPPELPEEKVEEIREEAEEEFPVEVTLERFPEPGYVVLEFEGEEEELYRRIEEKIREKGSAGGS [r16_227_TrMRF] | 1.17 ± 0.16 kcal/mol | 1.42 ± 0.35 kcal/mol | 1.55 ± 0.41 kcal/mol |
| SAGGSAGGSMPVVVEPTTIGDIEVTRVVLPDGTVVVYTKAPTTLKVTYRPLATGEEEEEVFPELSAGGSAGG [r6_555_JUSTAS] | 1.01 ± 0.011 kcal/mol | 0.829 ± 0.11 kcal/mol | 1.01 ± 0.056 kcal/mol |
| SAGGMVTSTVSVDPSVPKTTTTETFSDGTRVVTTTTELPSGLTVTTTTVTVPPDGSTTATSTTTTIAPSAGG [r13_230_JUSTAS] | 1.62 ± 0.064 kcal/mol | 0.958 ± 0.044 kcal/mol | 1.27 ± 0.11 kcal/mol |
| SAKNIAIKVSIWPFDPEDGEPQTFEITYPFPDPEDAIDEIEEFLPPGYRVKIEVFDPDGKPLKEIEIRISAG [r14_234_TrROS] | 1.93 ± 0.1 kcal/mol | 2.28 ± 0.048 kcal/mol | 2.09 ± 0.19 kcal/mol |
| SAGGSALAEKAKELALEKGYDPVKVTYDPKTGTLTMTAKPPGGKEVKMTFTIDEDTITITTTPLTKSAGGSA [r15_561_JUSTAS] | 0.996 ± 0.033 kcal/mol | 2.95 ± 0.078 kcal/mol | 2.49 ± 0.16 kcal/mol |
| SALTLEELEKRYPELPSELLEKIKEEAEKVPKDRTLTFLLTAPDGRRVRITVTKPDTVTVTVLPPGVPEASA [r9_1024_JUSTAS] | 4.13 ± 0.3 kcal/mol | 4.12 ± 0.094 kcal/mol | 4.14 ± 0.14 kcal/mol |
| SAGGDNIDVERHPHPNNMYMFSITIPPDYPLKIRYPNGPKHEIPIPDPNATIHFMFPPDEPIEIEIYPSAGG [r13_82_TrROS] | 1.12 ± 0.019 kcal/mol | 1.25 ± 0.12 kcal/mol | 1.2 ± 0.083 kcal/mol |
| SAGGPVIEVEKEYIPETGLVKVKVRDPSSDRELEIIAPSDLVDKIEKALENAPGTNSEAAVREALRDSAGGS [r8_484_TrMRF] | -0.935 ± 0.42 kcal/mol | 0.921 ± 0.032 kcal/mol | 0.402 ± 0.15 kcal/mol |
| SAKIEIIKKDGEYYLRITLENGKKKTIKLKGIKKIEIKNGKIYIYNKKTGKKIILKNAKIKKIEIEKVPSAG [r14_83_TrROS_Hall] | 3.1 ± 0.18 kcal/mol | 4.6 ± 0.18 kcal/mol | 3.87 ± 0.41 kcal/mol |
| SAGGSAGGSDDSPEDAQKQQAKPEIKIKLHIRFPDGKEYDLDEPFEFPINGQPMRISSIDIVYSAGGSAGGS [r12_43_TrROS] | 0.419 ± 0.037 kcal/mol | 1.18 ± 0.21 kcal/mol | 0.823 ± 0.11 kcal/mol |
| SAGGIIEIDPNGWVIRIEMYPPDGKPPKHTIPFPNATPEELIDELKDWADQLPNPGHKVKIDEITPMPSAGG [r13_29_TrROS] | 0.052 ± 0.071 kcal/mol | 0.372 ± 0.17 kcal/mol | 0.177 ± 0.086 kcal/mol |
| SAMPLEDMTPEQAEEFAKEFINRFQQENQKKGGPIPPGQEIEIPVRYKGGPVYIKITVTNPGNINIEVESAG [r14_501_TrROS] | 0.448 ± 0.048 kcal/mol | 0.708 ± 0.095 kcal/mol | 0.663 ± 0.13 kcal/mol |

| Sequence | folding stability dG unfold [1] | folding stability dG unfold [2] | folding stability dG unfold [3] |
| --- | --- | --- | --- |
| SAGGNWIWRIKFPGRSIHFNWEQGNIEIWPPDGEEKTIPLPPGEPLEEFADEFAEKNGFDKVEIEPVPSAGG [r13_852_TrROS] | 2.08 ± 0.11 kcal/mol | 1.94 ± 0.24 kcal/mol | 1.95 ± 0.21 kcal/mol |
| SAGGSAGGSAGSVTVTFISLEEGERYLVLTELRFGDYGIESRSTRIEVSDEKLEELKKAFSAGGSAGGSAGG [r11_47_TrMRF] | 1.52 ± 0.072 kcal/mol | 2.12 ± 0.036 kcal/mol | 2 ± 0.12 kcal/mol |
| SAGGMKTYTVTVEREVPDPSSDKWVYSTETLTIPYNVDPKTGTTPEEVAEELKAALPPDVLRVEFTDESAGG [r13_335_JUSTAS] | -0.166 ± 0.14 kcal/mol | 0.468 ± 0.21 kcal/mol | 0.317 ± 0.13 kcal/mol |
| SAGGSAGGSAMKVSTTPVTLPNGESATLETLPDGTKVLKVGDKYIVVYPSGEVKEVPLEELLSAGGSAGGSA [r18_379_JUSTAS] | 1.43 ± 0.06 kcal/mol | 1.76 ± 0.046 kcal/mol | 1.59 ± 0.12 kcal/mol |
| SAGGSAGGSAPLPPLTPEQVKALVEELKKKGYKVKKVTVVEVNGELYVFVEVDGKLYRIKVSAGGSAGGSAG [r3_395_TrROS_Hall] | 3.47 ± 0.069 kcal/mol | 4.47 ± 0.12 kcal/mol | 4.23 ± 0.064 kcal/mol |
| SAGGSAGGSAGGSGPSVTVSTTTLPPLPVTVETVTVGDTTVLVVFTPEGGSAVVPSGALSAGGSAGGSAGGS [r4_256_JUSTAS] | 1.96 ± 0.091 kcal/mol | 0.858 ± 0.02 kcal/mol | 1.4 ± 0.087 kcal/mol |
| SAGGSAGGSMVVVRRLPDGRYLLEVRLEGESLRFEVDGEEEVERFAKALEELTGRPVEVLTVESAGGSAGGS [r12_783_TrMRF] | 4.56 ± 0.12 kcal/mol | 3.84 ± 0.043 kcal/mol | 4.15 ± 0.061 kcal/mol |
| SAGGSSMYKTTTTPLSTFPVRDENGNFLEETKFEKTTVTYPDGSTVTVLKIEVGGKTFTLEVTPTPSAGGSA [r2_158_JUSTAS] | 0.0145 ± 0.075 kcal/mol | 0.952 ± 0.18 kcal/mol | 0.565 ± 0.18 kcal/mol |
| SAGGSELENMSLEELLARAEELARELAEETGRTVTVTVEVRVRLPDGSTRTFRFTVTLTVLREEDLSAGGSA [r2_157_TrROS_Hall] | 3.93 ± 0.12 kcal/mol | 4.739 ± 0.04 kcal/mol | 4.519 ± 0.041 kcal/mol |
| SAGGSAGGSAGGSYEVKEETEPKTGLKITTTTLPDGTIETTTINPATGEVTTTTSSPLESAGGSAGGSAGGS [r10_127_JUSTAS] | 1.34 ± 0.072 kcal/mol | 1.89 ± 0.052 kcal/mol | 1.73 ± 0.15 kcal/mol |
| SAGGSSPELAAERLAEELRRQGYAVREVVVTYDPAGTVTVSAVIEDPADPAATSTLTVTVPLAELGSAGGSA [r2_384_JUSTAS] | 2.45 ± 0.059 kcal/mol | 2.91 ± 0.024 kcal/mol | 2.73 ± 0.046 kcal/mol |
| SAKVSHLEFSLPNSVVTPEDLLAALEKLGFPPSKIKKMEIVKVKDNSYVVKIYLENEDGSDSIITLHLPSAG [r14_30_TrMRF] | 0.515 ± 0.078 kcal/mol | 2.39 ± 0.066 kcal/mol | 1.78 ± 0.11 kcal/mol |
| SAGSIEAAVEALEKELREKGYKVSVELVETDPSDPNRLNLVIRVTVEGFSPESKPLGKKEETYVIEGGSAGG [r19_418_JUSTAS] | 1.12 ± 0.031 kcal/mol | 1.45 ± 0.069 kcal/mol | 1.28 ± 0.14 kcal/mol |
| SAEVEIEVVEKDGKLYLVIRVRFPPGLKPGDKVTLTLTLPNGAKVTITRDKDGTRYITIVVELKDLEKLSAG [r14_754_TrROS_Hall] | 3.94 ± 0.41 kcal/mol | 5.23 ± 0.13 kcal/mol | 4.69 ± 0.22 kcal/mol |
| SAGGMLEEVAEELAKELNATAREFTTVGDVPRILLTFKVPGSSTYLEVTLTLPPDGSVERTTKPIAASAGGS [r16_433_JUSTAS] | 0.974 ± 0.047 kcal/mol | 1.7 ± 0.17 kcal/mol | 1.3 ± 0.14 kcal/mol |
